Results as given in article PMC10522771, “The C-terminal transactivation domain of MITF interacts promiscuously with co-activator CBP/p300” (Scientific Reports, 2023).
Blank lines part the entries; values can stand above or below the binder they belong to.

What was measured:
Assay in all cases: ITC; 400 µM TAZ1 or TAZ2 in the syringe injected into 16–30 µM MITF construct in the cell; 20 mM TRIS pH 8, 25 mM NaCl, 5 mM βME, 10 µM ZnCl2; 30 °C; single-binding-site fit; duplicate
Conditions in all cases: both partners purified
[1] = molecular target: T1, MITF_(CTERM) (UniProt O75030-9 289-419)
T1 construct: numbers count on: the MITF-M isoform; 15N-labelled for the NMR titration; also called C-terminal MITF-M; MITF C-terminal region; source: E. coli BL21 (DE3), purified (Ni-NTA, TEV cleavage, Q-Sepharose)
T1 sequence (looked up): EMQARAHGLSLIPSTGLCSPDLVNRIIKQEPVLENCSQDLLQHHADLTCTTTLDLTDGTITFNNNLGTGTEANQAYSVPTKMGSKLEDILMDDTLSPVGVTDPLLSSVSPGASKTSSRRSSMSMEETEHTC

[2] = molecular target: T2, MITF_(ΔThr-rich) (UniProt O75030-9 289-419, Δ334–345)
T2 construct: numbers count on: the MITF-M isoform; The methods print Δ334–354; the legend, the results and the canonical numbers (Δ441–452) give Δ334–345; also called Δ334–345; deletion of the threonine-rich region; source: E. coli BL21 (DE3), purified (Ni-NTA, TEV cleavage, Q-Sepharose)
T2 sequence (looked up): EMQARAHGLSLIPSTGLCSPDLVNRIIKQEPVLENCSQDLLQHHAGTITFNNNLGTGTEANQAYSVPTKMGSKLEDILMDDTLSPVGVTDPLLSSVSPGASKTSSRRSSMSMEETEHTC

[3] = molecular target: T3, MITF_(ΔAcidic) (UniProt O75030-9 289-419, Δ372–381)
T3 construct: numbers count on: the MITF-M isoform; also called Δ372–381; deletion of the acidic region; source: E. coli BL21 (DE3), purified (Ni-NTA, TEV cleavage, Q-Sepharose)
T3 sequence (looked up): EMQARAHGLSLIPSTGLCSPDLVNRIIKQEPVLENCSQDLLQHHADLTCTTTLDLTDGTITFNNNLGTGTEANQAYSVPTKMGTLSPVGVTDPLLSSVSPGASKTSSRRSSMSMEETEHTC

[4] = molecular target: T4, MITF_(ΔSer-rich) (UniProt O75030-9 289-419, Δ394–411)
T4 construct: numbers count on: the MITF-M isoform; The methods print Δ372–381 for this variant too; the legend, the results and the canonical numbers (Δ501–518) give Δ394–411; also called Δ394–411; deletion of the serine-rich region; source: E. coli BL21 (DE3), purified (Ni-NTA, TEV cleavage, Q-Sepharose)
T4 sequence (looked up): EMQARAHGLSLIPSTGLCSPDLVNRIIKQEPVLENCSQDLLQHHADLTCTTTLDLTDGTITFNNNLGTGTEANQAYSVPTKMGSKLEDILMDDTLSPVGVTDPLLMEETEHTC

Kd [1]: 760 ± 50 nM
Kd [2]: 410 ± 20 nM
Kd [3]: 7240 ± 700 nM
Kd [4]: 2260 ± 90 nM
B1: TAZ2 domain of CBP/p300 (domain or fragment)
chain: GDSRRLSIQRCIQSLVHACQCRNANCSLPSCQKMKRVVQHTKGCKRKTNGGCPICKQLIALCCYHAKHCQENKCPVPFCLNI

Kd [1]: 5000 ± 310 nM
B2: TAZ1 domain of CBP/p300 (domain or fragment)
chain: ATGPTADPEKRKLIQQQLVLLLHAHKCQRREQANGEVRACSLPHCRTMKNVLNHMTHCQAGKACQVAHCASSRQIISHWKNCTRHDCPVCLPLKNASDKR
modifications: three structural Zn2+ ions expected; the paper does not state CBP or p300, species or limits (described in a cited paper); mouse CBP TAZ1 340-439 taken by convention
